# Assay results published in patent US20260250412A1 (GENEQUANTUM HEALTHCARE SUZHOU, published 2026).
# Numbering of substitutions follows the chain as printed.
# B1: Trodelvy (antibody, human IgG1, kappa)
# heavy: not shown
# light: DIQLTQSPSSLSASVGDRVSITCKASQDVSIAVAWYQQKPGKAPKLLIYSASYRYTGVPDRFSGSGSGTDFTLTISSLQPEDFAVYYCQQHYITPLTFGAGTKVEIKRTVAAPSVFIFPPSDEQLKSGTASVVCLLNNFYPREAKVQWKVDNALQSGNSQESVTEQDSKDSTYSLSSTLTLSKADYEKHKVYACEVTHQGLSSPVTKSFNRGEC
# modifications: SN-38 conjugated; sites not stated
# notes: also called IMMU-132
# B2: hRS7 (from TRODELVY) (antibody, human IgG1, kappa)
# heavy: not shown
# light: B1 light
# notes: expressed in HEK293F; also called Trodelvy's antibody
# B3: Ab13 (antibody, human IgG1, kappa, V domains shown)
# VH: QVQLQQSGSELKKPGASVKVSCKASGYTFTNAGMNWVKQAPGQGLKWMGWINTDSGEPTYTDDFKGRFAFSLDTSVSTAYLQISSLKADDTAVYFCARGGFGSSYWYFDVWGQGSLVTVSS
# VL: DIQLTQSPSSLSASVGDRVSITCKASQDVSIAVAWYQQKPGKAPKLLIYSASYRYTGVPDRFSGSGSGTDFTLTISSLQPEDFAVYYCQQHYITPLTFGAGTKVEIKR
# B4: Ab16 (antibody, human IgG1, kappa, V domains shown)
# VH: B3 VH with N31A, D54Y, S55T
# VL: B3 VL
# B5: ADC-2 (antibody, human IgG1, kappa)
# heavy: not shown
# light: DIQLTQSPSSLSASVGDRVSITCKASQDVSIAVAWYQQKPGKAPKLLIYSASYRYTGVPDRFSGSGSGTDFTLTISSLQPEDFAVYYCQQHYITPLTFGAGTKVEIKRTVAAPSVFIFPPSDEQLKSGTASVVCLLNNFYPREAKVQWKVDNALQSGNSQESVTEQDSKDSTYSLSSTLTLSKADYEKHKVYACEVTHQGLSSPVTKSFNRGECGALPETGG
# B6: GQhRS7 (antibody, human IgG1, kappa)
# heavy: not shown
# light: B5 light
# notes: unconjugated
# B7: Datopotamab (antibody, human IgG1, kappa, V domains shown)
# VH: QVQLVQSGAEVKKPGASVKVSCKASGYTFTTAGMQWVRQAPGQGLEWMGWINTHSGVPKYAEDFKGRVTISADTSTSTAYLQLSSLKSEDTAVYYCARSGFGSSYWYFDVWGQGTLVTVSS
# VL: B3 VL with L4M, S20T, I31T, D60S, A100Q, V104L
# notes: expressed in HEK293F; also called DS1062a Ab; DS1062's antibody
# What was measured:
# [1] = target: T1, recombinant extracellular domain of human TROP2 (human, UniProt P09758 27-274); experiment: ELISA on plate-coated human Trop2 ECD (0.5 ug/mL), detection with goat anti-human Fc-HRP, TMB, absorbance at 450 nm
# T1 construct: extracellular domain; also called Human Trop 2 ECD; Trop2 ECD
# T1 sequence (looked up): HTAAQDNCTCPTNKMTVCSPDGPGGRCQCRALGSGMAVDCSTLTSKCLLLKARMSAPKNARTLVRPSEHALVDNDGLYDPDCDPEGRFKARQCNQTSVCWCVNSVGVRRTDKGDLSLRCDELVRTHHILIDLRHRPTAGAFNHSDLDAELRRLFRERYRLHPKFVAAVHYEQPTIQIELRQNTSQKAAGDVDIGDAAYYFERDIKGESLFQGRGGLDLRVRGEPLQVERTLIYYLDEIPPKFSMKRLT
# Procedure: Human Trop 2 ECD at concentration of 0.5 μg/mL was coated on 96-well plates at 4° C. for overnight. The plates were then blocked with 3% BSA-PBST for 1 h at room temperature. […] After incubation goat anti-human FC secondary antibody (HRP) (Sinobiological, SSA001) was added at a ratio of 1:100000 and incubated at room temperature for 60 min again. Following the wash, the plate was treated with TMB solution (Sigma, T0440) as an HRP substrate, and the reaction was stopped with 1 M H₂SO₄. The absorbance for each well was detected at 450 nm wavelength.
# [2] = target: T1, recombinant extracellular domain of …; experiment: SPR (Biacore T200), antibody captured on Protein A chip, TROP2 ECD as analyte, 1:1 model, 25 C
# Procedure: Binding kinetics and affinity analysis were performed. Surface Plasmon Resonance (SPR) analysis was performed on a Biacore T200 (GE healthcare) with a Sensor Chip Protein A (GE healthcare) following manufacturer's instructions. All measurements were performed at 25° C. in the HBS-EP⁺ buffer (10 mM HEPES, pH 7.4, 150 mM NaCl, 3 mM EDTA, and 0.05% surfactant P20). About 110-140 RU (Resonance unit) of each of the purified antibodies was captured on flow cells 2 and 4 (i.e., the reaction surface) of the sensor chip, respectively. Flow cells 1 and 3 were treated with the HBS-EP⁺ buffer to serve as reference surfaces.
# Serial dilutions of the recombinant extracellular domain of human TROP2 (i.e., the analyte) (Acrobio system) (243, 81, 27, 9, 3, 1, 0.333, and 0.111 nM, respectively) were prepared in HBS-EP⁺ buffer. Capturing of the antibodies was followed by a three-minute injection (association phase) of serial dilutions of TROP2 at a flow rate of 30 μL/min and ten minutes of buffer flow (dissociation phase). The chip surface was regenerated by two pulses of 30-second injection of 10 mM Glycine-HCl pH 1.5 at a flow rate of 50 μL/min. The collected data were processed on a Biacore T200 Evaluation software using methods known in the art, comprising the following steps: (1) setting the response on the y-axis and the start of the injection on the x-axis to zero, (2) performing double referencing by firstly subtracting the reference surface data from the reaction surface data to get the analyte injection curves, and then subtracting the buffer injection curves from the analyte injection curves, and (3) performing the kinetic analysis using the 1:1 binding model with a global fit.
Binder,EC50 (read off the curve) [1] [µg/mL],Kd [2] [nM]
B1,~0.02,
B2,,1.28
B3,,8.16
B4,,13.1
B5,~0.02,
B6,~0.02,
B7,,13
